Assay results as given in patent US20110229459A1 (Chugai, published 2011).
Positions count from the first letter of the chain named.

Legend:
[1] = molecular target: T1, cytoplasmic domain-lacking human NR10 on CHO cells (human, UniProt Q8NI17 20-553); experiment: FMAT competition on hNR10-expressing CHO cells; blocked ligand: FMAT Blue-labeled hIL-31; mean +/- S.D. (n=3)
T1 construct: The construct lacks the cytoplasmic domain; also called hNR10-expressing CHO cells; hNR10
T1 sequence: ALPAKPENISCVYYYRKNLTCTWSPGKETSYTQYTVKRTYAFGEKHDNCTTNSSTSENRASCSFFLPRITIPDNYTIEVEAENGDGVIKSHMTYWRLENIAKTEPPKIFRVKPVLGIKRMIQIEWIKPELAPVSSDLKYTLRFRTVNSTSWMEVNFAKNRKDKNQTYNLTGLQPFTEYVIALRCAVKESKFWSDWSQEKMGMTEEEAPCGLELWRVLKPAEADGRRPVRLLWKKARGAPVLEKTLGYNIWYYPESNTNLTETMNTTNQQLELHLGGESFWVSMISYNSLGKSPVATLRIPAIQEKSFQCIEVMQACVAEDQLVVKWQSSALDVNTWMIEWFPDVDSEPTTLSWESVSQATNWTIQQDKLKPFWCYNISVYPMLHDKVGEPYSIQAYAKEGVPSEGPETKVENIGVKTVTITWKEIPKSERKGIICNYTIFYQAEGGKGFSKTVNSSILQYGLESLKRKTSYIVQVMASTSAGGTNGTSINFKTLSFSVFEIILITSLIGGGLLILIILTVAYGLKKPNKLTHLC
Description: Antibodies were assessed for the activity of inhibiting the IL-31/NR10 binding by using hNR10-expressing CHO cells as described below. The chimeric NS22 antibody and NS22_H0L0 (H chain, H0-SKSC/SEQ ID NO: 54; L chain, L0/SEQ ID NO: 56) were diluted at an appropriate concentration using Assay buffer (10 mM HEPES, 140 mM NaCl, 2.5 mM CaCl₂, 3 mM MgCl₂, 2% FBS, 0.01% NaN₃, pH7.4), and further eight serial dilutions were prepared at a common dilution ration of 2. The dilutions were added at 40 μl/well to plates (96-Well FMAT Plates, Applied Biosystems). Then, FMAT Blue-labeled hIL-31 was diluted 400 times with Assay buffer, and added at 20 μl/well. Finally, a cell suspension adjusted to 2.5×10⁵ cells/ml using Assay buffer was added at 40 μl/well (final 1×10⁴ cells/well). Two hours after addition of cells, the fluorescence (FL1) was measured using the 8200 Cellular Detection System (Applied Biosystems).
Each variant was tested for the activity of inhibiting the hIL-31/hNR10 binding by using FMAT. The test was carried out according to the method as described in Example 4.

rhNR10 = molecular target: T2, rhNR10 (human, UniProt Q8NI17 20-519, limits assumed); experiment: SPR (Biacore T100): antibody captured on Protein A, rhNR10 as analyte
T2 construct: also called recombinant human NR10; IL-31 receptor
T2 sequence: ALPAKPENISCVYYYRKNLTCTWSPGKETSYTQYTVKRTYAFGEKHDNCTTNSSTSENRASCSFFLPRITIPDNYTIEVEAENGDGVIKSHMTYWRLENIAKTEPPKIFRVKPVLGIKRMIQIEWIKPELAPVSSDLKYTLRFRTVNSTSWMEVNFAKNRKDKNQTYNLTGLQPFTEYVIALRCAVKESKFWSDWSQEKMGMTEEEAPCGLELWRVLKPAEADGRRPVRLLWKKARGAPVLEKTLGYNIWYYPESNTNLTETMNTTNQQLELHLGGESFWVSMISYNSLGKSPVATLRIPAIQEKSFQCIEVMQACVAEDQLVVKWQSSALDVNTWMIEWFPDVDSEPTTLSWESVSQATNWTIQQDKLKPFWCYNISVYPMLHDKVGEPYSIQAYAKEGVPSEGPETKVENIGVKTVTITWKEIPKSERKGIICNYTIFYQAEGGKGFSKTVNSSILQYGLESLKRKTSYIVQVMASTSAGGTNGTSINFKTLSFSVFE
Description: Kinetic analysis of the antigen-antibody reaction was carried out using Biacore T100 (GE Healthcare Biosciences). The antigen-antibody interaction was measured by immobilizing rec-Protein A (hereinafter Protein A) (ZYMED) onto a sensor chip, capturing an antibody on the immobilized Protein A, and then reacting the antigen as an analyte. Various concentrations of rhNR10 were used as the antigen. The kinetic parameters, association rate constant kₐ (1/Ms) and dissociation rate constant kd (1/s), were calculated from the sensorgrams obtained by the measurement. Then, KD (M) was determined based on the rate constants. Each parameter was determined using Biacore T100 Evaluation Software version 1.1 (GE Healthcare Biosciences).
The running buffer used was HBS-EP+. Each antibody was prepared at 0.25 μg/ml, or prepared so that about 100 RU would bind to Protein A. rhNR10 used as an analyte was prepared at 0, 38.5, 77.0, and 154 nM, or at 0, 19.25, and 77.01 nM using HBS-EP+. In the measurement, first, the antibody solution was captured on Protein A, and an analyte solution was reacted at a flow rate of 20 μL/min for three minutes. Then, the solution was switched to HBS-EP+, and the dissociation phase was measured for five minutes. […] The obtained sensorgrams were kinetically analyzed using the Biacore-specific data analysis software, Biacore T100 Evaluation Software Version 1.1.

soluble human FcRn = molecular target: T3, soluble human FcRn (human, UniProt P55899 24-290; P16213 21-119); experiment: SPR (Biacore 3000), pH 6.0: antibody captured on the chip, human FcRn as analyte, steady state affinity
T3 construct: The stated ranges include the signal regions; also called hFcRn; complex of FcRn and β2-microglobulin
T3 sequence (P55899 24-290 limits assumed, chain 1 of 2): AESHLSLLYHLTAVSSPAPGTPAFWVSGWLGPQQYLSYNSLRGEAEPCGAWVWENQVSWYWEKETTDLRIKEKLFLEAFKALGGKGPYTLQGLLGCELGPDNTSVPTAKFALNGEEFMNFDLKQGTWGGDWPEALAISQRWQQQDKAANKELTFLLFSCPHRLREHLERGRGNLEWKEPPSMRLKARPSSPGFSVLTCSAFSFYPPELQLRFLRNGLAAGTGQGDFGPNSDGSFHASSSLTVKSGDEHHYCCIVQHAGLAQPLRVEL
T3 sequence (P16213 21-119 limits assumed, chain 2 of 2): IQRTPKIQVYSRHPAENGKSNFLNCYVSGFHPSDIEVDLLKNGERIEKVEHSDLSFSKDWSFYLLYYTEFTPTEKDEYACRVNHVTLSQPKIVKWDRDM
Description: The binding to human FcRn was assessed using Biacore 3000.
The affinity was calculated using BIAevaluation software. The obtained sensorgram was used to calculate the amount of hFcRn bound to the antibody immediately before the end of human FcRn injection. This was fitted by the steady state affinity method to calculate the affinity of human FcRn for the antibody.
The binding activities of huPM1-IgG1 and huPM1-M58 to human FcRn were assessed using BIAcore.

B1: Hp9 variant of H0L0 (antibody, V domains shown)
VH: QVQLVQSGAEVKKPGASVKVSCKASGYTFTGYIMNWVRQAPGQGLEWMGLINPYNGGTSYNQQFKGRVTITADESTSTAYMELSSLRSEDTAVYYCARDGYDDGPYTMDYWGQGTLVTVSS
VL: DIQMTQSPSSLSASVGDRVTITCRTSENIYSFLAWYQQKPGKAPKLLIYNAKTLAKGVPSRFSGSGSGTDFTLTISSLQPEDFATYYCQHHYESPLTFGGGTKVEIKR
notes: Variant of H0L0; also called Hp9-VH
For B1, the “IC50 (read off the curve)” value [1] was roughly 0.09 µg/mL.

B2: H0L12 (H chain, H0-M58; L chain, L12) (antibody, V domains shown)
VH: B1 VH with Q63K
VL: B1 VL with R24Q, N28D, L33V, K52Q, L54E, K56Q, E93D
With B2 the “fold affinity against H0L0” value (rhNR10) was roughly 2 times.

B3: huPM1-M58 (humanized anti-IL-6 receptor antibody with constant region M58) (antibody)
heavy: QVQLQESGPGLVRPSQTLSLTCTVSGYSITSDHAWSWVRQPPGRGLEWIGYISYSGITTYNPSLKSRVTMLRDTSKNQFSLRLSSVTAADTAVYYCARSLARTTAMDYWGQGSLVTVSSASTKGPSVFPLAPSSKSTSGGTAALGCLVKDYFPEPVTVSWNSGALTSGVHTFPAVLQSSGLYSLSSVVTVPSSNFGTQTYTCNVDHKPSNTKVDKTVERKSCVECPPCPAPPVAGPSVFLFPPKPKDTLMISRTPEVTCVVVDVSQEDPEVQFNWYVDGVEVHNAKTKPREEQFNSTFRVVSVLTVVHQDWLNGKEYKCKVSNKGLPAPIEKTISKTKGQPREPQVYTLPPSQEEMTKNQVSLTCLVKGFYPSDIAVEWESNGQPENNYKTTPPMLDSDGSFFLYSKLTVDKSRWQEGNVFSCSVMHEALHNHYTQKSLSLSP
light: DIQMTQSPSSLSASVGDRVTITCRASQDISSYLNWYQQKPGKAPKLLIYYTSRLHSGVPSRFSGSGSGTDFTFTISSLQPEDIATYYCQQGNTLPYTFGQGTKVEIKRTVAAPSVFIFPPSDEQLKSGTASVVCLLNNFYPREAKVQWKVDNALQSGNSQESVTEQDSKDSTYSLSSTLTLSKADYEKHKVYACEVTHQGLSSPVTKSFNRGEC
notes: copies: 2 + 2
In the case of B3, the “fold binding activity against huPM1-IgG1” value (soluble human FcRn) is reported as roughly 1.4 times.
